Assay results: the supplement of paper PMC7877785
± gives the uncertainty stated by the source.

Assay: self-splicing fitness, log relative to wild type (ln ratio); higher = more splicing; Tetrahymena group I intron in knt gene, E. coli kanamycin selection, DiMSum; sequences stand for … in CUCUCU…GGAGGGAAAAGUUAUCAGGCAUGCACCUGGUAGCUAGUCUUUAAACCAAUAGAUUGCAUCGGUUUAAAAGGCAAGACCGUCAAAUUGCGGGAAAGGGGUCAACAGCCGUUCAGUACCAAGUCUCAGGGGAAACUUUGAGAUGGCCUUGCAAAGGGUAUGGUAAUAAGCUGACGGACAUGGUCCUAACCACGCAGCCAAGUCCUAAGUCAACAGAUCUUCUGUUGAUAUGGAUGCAGUUCACAGACUAAAUGUCGGUCGGGGAAGAUGUAUUCUUCUCAUAAGAUAUAGUCGGACCUCUCCUUAAUGGGAGCUAGCGGAUGAAGUGAUGCAACACUGGAGCCGCUGGGAACUAAUUUGUAUGCGAAAGUAUAUUGAUUAGUUUUGGAGUACUCGUGGUCG
Procedure, shortened: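 Six replicate transformations of E. coli BL21(DE3) with a pET-22b(+) library were grown overnight at 37°C or 30°C. The library randomised all eight P1ex-region intron nucleotides, the intron lying in the knt kanamycin-resistance gene, and plates were LB agar with or without 25 μg/mL kanamycin plus 100 μg/mL carbenicillin, 50 μM IPTG and 0.2% rhamnose. Pooled colonies were amplicon-sequenced on an Illumina HiSeq 2500, and fitness is the DiMSum error-weighted combination of wild-type-normalised replicate fold changes, kanamycin versus none.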

| Sequence | self-splicing fitness (ln) (37 °C) | self-splicing fitness (ln) (30 °C) |
| --- | --- | --- |
| UAGUAGCAAUAUUACGCCUC | -1.66 ± 0.31 |  |
| UAGUAGCAAUAUUACGCGCA | 0.274 ± 0.11 | -0.614 ± 0.1 |
| UAGUAGCAAUAUUACGCUUU | -2.18 ± 0.18 | -2.3 ± 0.25 |
| UAGUAGCAAUAUUACGGACA | -0.115 ± 0.19 | -1.04 ± 0.17 |
| UAGUAGCAAUAUUACGGACU | 0.484 ± 0.15 | -0.0123 ± 0.18 |
| UAGUAGCAAUAUUACGGAGA | -3.35 ± 0.35 | -3.56 ± 0.47 |
| UAGUAGCAAUAUUACGGAUA | -0.444 ± 0.14 | -2.7 ± 0.26 |
| UAGUAGCAAUAUUACGGCAG | -1.57 ± 0.14 | -1.01 ± 0.11 |
| UAGUAGCAAUAUUACGGCCC | -1.92 ± 0.37 | -2.09 ± 0.17 |
| UAGUAGCAAUAUUACGGCUC | 0.206 ± 0.14 | -1.01 ± 0.098 |
| UAGUAGCAAUAUUACGGGCG | -0.395 ± 0.12 | -0.694 ± 0.14 |
| UAGUAGCAAUAUUACGGGGU | -2.89 ± 0.22 | -3 ± 0.17 |
| UAGUAGCAAUAUUACGGUGA | -1.46 ± 0.24 | -2.29 ± 0.42 |
| UAGUAGCAAUAUUACGGUUG | -0.642 ± 0.07 | -0.955 ± 0.056 |
| UAGUAGCAAUAUUACGUAUG | -0.711 ± 0.12 | -1.82 ± 0.1 |
| UAGUAGCAAUAUUACGUCGU | -2.81 ± 0.21 | -3.76 ± 0.38 |
| UAGUAGCAAUAUUACGUGUU | -1.95 ± 0.15 | -3.65 ± 0.21 |
| UAGUAGCAAUAUUACGUUAA | -2.06 ± 0.17 | -2.34 ± 0.17 |
| UAGUAGCAAUAUUACGUUAC | -2.97 ± 0.23 | -3.78 ± 0.2 |
| UAGUAGCAAUAUUACGUUUC | -1.5 ± 0.41 | -1.16 ± 0.38 |
| UAUAAGCAAUAUUACGAACA | -0.241 ± 0.21 | -0.73 ± 0.15 |
| UAUAAGCAAUAUUACGAACC | -1.51 ± 0.32 | -2.5 ± 0.41 |
| UAUAAGCAAUAUUACGAGUU | -1.11 ± 0.15 | -2.72 ± 0.15 |
| UAUAAGCAAUAUUACGAUUG | -0.744 ± 0.13 | -1.48 ± 0.11 |
| UAUAAGCAAUAUUACGCAUA | -0.585 ± 0.12 | -1.92 ± 0.12 |

| Sequence | self-splicing fitness (ln) (37 °C) | self-splicing fitness (ln) (30 °C) |
| --- | --- | --- |
| UAUAAGCAAUAUUACGCGAG | -1.02 ± 0.11 | -1.39 ± 0.12 |
| UAUAAGCAAUAUUACGCUGA | -1.53 ± 0.23 | -1.96 ± 0.22 |
| UAUAAGCAAUAUUACGGAAC | -2.94 ± 0.41 | -4.02 ± 0.42 |
| UAUAAGCAAUAUUACGGCAU | -0.223 ± 0.098 | -0.623 ± 0.077 |
| UAUAAGCAAUAUUACGGCCA | 0.169 ± 0.22 | -0.385 ± 0.15 |
| UAUAAGCAAUAUUACGGCGC | -1.35 ± 0.14 | -1.25 ± 0.11 |
| UAUAAGCAAUAUUACGGGCC |  | -2.99 ± 0.31 |
| UAUAAGCAAUAUUACGGGGC |  | -2.29 ± 0.45 |
| UAUAAGCAAUAUUACGGUCC |  | -0.922 ± 0.44 |
| UAUAAGCAAUAUUACGGUGC | -3.09 ± 0.3 | -2.46 ± 0.19 |
| UAUAAGCAAUAUUACGUACG | -0.0322 ± 0.15 | -0.621 ± 0.13 |
| UAUAAGCAAUAUUACGUAUU | -1.61 ± 0.18 | -4.41 ± 0.37 |
| UAUAAGCAAUAUUACGUCAA | -0.698 ± 0.11 | -2.24 ± 0.14 |
| UAUAAGCAAUAUUACGUCGG | -0.0864 ± 0.098 | -0.782 ± 0.076 |
| UAUAAGCAAUAUUACGUUAA | -1.5 ± 0.14 | -2.59 ± 0.15 |
| UAUAAGCAAUAUUACGUUGU | -2.55 ± 0.17 | -4.3 ± 0.2 |
| UAUCAGCAAUAUUACGAAUG | 0.0362 ± 0.07 | 0.00149 ± 0.052 |
| UAUCAGCAAUAUUACGAGAG | -0.0372 ± 0.092 | -3.03 ± 0.15 |
| UAUCAGCAAUAUUACGCCAA | -0.351 ± 0.2 | -1.34 ± 0.19 |
| UAUCAGCAAUAUUACGCCGA | -0.34 ± 0.18 | -1.32 ± 0.12 |
| UAUCAGCAAUAUUACGCGAU | -2.49 ± 0.23 |  |
| UAUCAGCAAUAUUACGCGUA | 0.0959 ± 0.12 | -0.493 ± 0.1 |
| UAUCAGCAAUAUUACGGCAU | -0.0824 ± 0.075 | -1.14 ± 0.071 |
| UAUCAGCAAUAUUACGGCCA | 0.167 ± 0.11 | 0.201 ± 0.12 |
| UAUCAGCAAUAUUACGUAAA | 0.233 ± 0.1 | -0.89 ± 0.068 |

| Sequence | self-splicing fitness (ln) (37 °C) | self-splicing fitness (ln) (30 °C) |
| --- | --- | --- |
| UAUCAGCAAUAUUACGUAAC | -0.246 ± 0.16 | -1.48 ± 0.14 |
| UAUCAGCAAUAUUACGUAAU | -0.784 ± 0.077 | -1.62 ± 0.073 |
| UAUCAGCAAUAUUACGUACA | -0.199 ± 0.07 | -0.141 ± 0.058 |
| UAUCAGCAAUAUUACGUCGG | 0.0416 ± 0.082 | -1.02 ± 0.064 |
| UAUCAGCAAUAUUACGUGAC | -1.45 ± 0.15 | -0.555 ± 0.1 |
| UAUCAGCAAUAUUACGUGCC | -1.95 ± 0.16 | -4.21 ± 0.34 |
| UAUCAGCAAUAUUACGUGGG | -1.77 ± 0.13 | -1.97 ± 0.1 |
| UAUCAGCAAUAUUACGUGUU | -2.83 ± 0.12 | -3.36 ± 0.14 |
| UAUGAGCAAUAUUACGAAGA | -1.81 ± 0.2 | -2.69 ± 0.44 |
| UAUGAGCAAUAUUACGACCA | -2.07 ± 0.18 | -2.25 ± 0.16 |
| UAUGAGCAAUAUUACGAGGG | -2.66 ± 0.29 | -3.93 ± 0.42 |
| UAUGAGCAAUAUUACGCAUA | -2.21 ± 0.42 |  |
| UAUGAGCAAUAUUACGCCAG | -1.21 ± 0.38 | -2.96 ± 0.4 |
| UAUGAGCAAUAUUACGCCCG | 0.00889 ± 0.21 | -2.23 ± 0.3 |
| UAUGAGCAAUAUUACGCGCA | -0.965 ± 0.15 | -1.68 ± 0.12 |
| UAUGAGCAAUAUUACGCUAG |  | -3.34 ± 0.41 |
| UAUGAGCAAUAUUACGCUGG | -1.79 ± 0.38 | -2.71 ± 0.33 |
| UAUGAGCAAUAUUACGGAUC | -2.19 ± 0.41 | -3.84 ± 0.44 |
| UAUGAGCAAUAUUACGGCCU |  | -4 ± 0.37 |
| UAUGAGCAAUAUUACGGCGA | -0.45 ± 0.16 | -0.815 ± 0.17 |
| UAUGAGCAAUAUUACGGGAG | -2.95 ± 0.24 | -1.86 ± 0.19 |
| UAUGAGCAAUAUUACGGUGG | -2.72 ± 0.37 | -1.85 ± 0.22 |
| UAUGAGCAAUAUUACGGUUA | 0.43 ± 0.12 | -1.76 ± 0.15 |
| UAUGAGCAAUAUUACGUACA | -1.62 ± 0.23 | -2.39 ± 0.18 |
| UAUGAGCAAUAUUACGUACG | -1.34 ± 0.21 | -2.35 ± 0.19 |

| Sequence | self-splicing fitness (ln) (37 °C) | self-splicing fitness (ln) (30 °C) |
| --- | --- | --- |
| UAUGAGCAAUAUUACGUAGU | -1.99 ± 0.21 | -3.67 ± 0.28 |
| UAUGAGCAAUAUUACGUAUG | -1.58 ± 0.27 | -2.35 ± 0.22 |
| UAUGAGCAAUAUUACGUCAA | -2.59 ± 0.38 |  |
| UAUGAGCAAUAUUACGUCUC |  | -2.45 ± 0.25 |
| UAUGAGCAAUAUUACGUGGA | -3.47 ± 0.43 | -3.52 ± 0.35 |
| UAUUAGCAAUAUUACGAAAG |  | -2.42 ± 0.37 |
| UAUUAGCAAUAUUACGAAUA | -0.292 ± 0.38 | -0.842 ± 0.38 |
| UAUUAGCAAUAUUACGACUU | -0.537 ± 0.14 | -0.468 ± 0.13 |
| UAUUAGCAAUAUUACGAGAG | -3.11 ± 0.29 | -3.48 ± 0.26 |
| UAUUAGCAAUAUUACGAUAA | 0.628 ± 0.16 | -1.07 ± 0.19 |
| UAUUAGCAAUAUUACGAUAC | -1.13 ± 0.24 |  |
| UAUUAGCAAUAUUACGAUUC | -0.062 ± 0.18 | -1.88 ± 0.16 |
| UAUUAGCAAUAUUACGCAUA | -0.355 ± 0.26 | -0.754 ± 0.29 |
| UAUUAGCAAUAUUACGCCAA | -1.68 ± 0.23 | -1.65 ± 0.2 |
| UAUUAGCAAUAUUACGCCCU | 0.526 ± 0.2 | -1.3 ± 0.21 |
| UAUUAGCAAUAUUACGCCGA | -0.195 ± 0.28 | -2.3 ± 0.31 |
| UAUUAGCAAUAUUACGCCUG | 0.00497 ± 0.16 | -0.0456 ± 0.13 |
| UAUUAGCAAUAUUACGGCGA | -0.325 ± 0.16 | -0.206 ± 0.15 |
| UAUUAGCAAUAUUACGGGCU | -2.3 ± 0.23 | -3.47 ± 0.27 |
| UAUUAGCAAUAUUACGGGUU | -1.77 ± 0.2 | -2.08 ± 0.13 |
| UAUUAGCAAUAUUACGUAAC | -1.09 ± 0.2 | -1.8 ± 0.19 |
| UAUUAGCAAUAUUACGUGCU | -2.04 ± 0.15 | -2.12 ± 0.12 |
| UAUUAGCAAUAUUACGUUUA | 0.132 ± 0.2 | -1.6 ± 0.21 |
| UCAAAGCAAUAUUACGAGUA | -0.678 ± 0.072 | -2.07 ± 0.083 |
